Reference: the supplement of paper PMC10126150
± gives the standard deviation of the averaged measurements.

Tested on: ATP
Test: switch fluorescence ratio, 500 uM ATP over buffer (Cy3 cluster intensity, sum of 5 cycles each) (fold (ratio)); higher = stronger signal-on switching upon ATP binding; sequences stand for … in TCGTCGGCAGCGTCAGATGTGTATAAGAGACAGTTTTTTTTTTTTTTTTTTTTTTTTT…TC
Conditions: aptamer strand: ATP DNA aptamer (quencher-CACCTGGGGGAGTATTGCGGAGGAAGG + anchor), 100 nM annealed; ATP concentration: 500 uM
In short: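 Cy3-labelled switching-strand clusters on a modified Illumina MiSeq flow-cell were annealed to 100 nM quencher-labelled ATP aptamer, imaged in selection buffer, then imaged after 15 min with 500 uM ATP at 22 °C. Five buffer/ATP cycles ran, with NaOH stripping and re-annealing between them. The fluorescence ratio is summed target-cycle over summed buffer-cycle Cy3 intensity per cluster, averaged per switch-domain sequence. Clusters outside 100-1000 RFU were excluded.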
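Also: ATP exposure 15 min at 22 °C before imaging.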

For TCAAAATGCA, the switch fluorescence ratio was 0.9976 ± 0.0092.
TCAAAGGGCC showed a switch fluorescence ratio of 1.004 ± 0.0073.
In the case of TCAAAGGGGG, the switch fluorescence ratio is reported as 0.951 ± 0.023.
Work on TCAAAGGGGT yielded a switch fluorescence ratio of 1.052 ± 0.0047.
For TCAAAGTACC, the switch fluorescence ratio was 1.16 ± 0.073.
With TCAAATAGCG the switch fluorescence ratio was 1.031 ± 0.0032.
For TCAAATAGGA, the switch fluorescence ratio was 1.01 ± 0.012.
TCAAATATTT showed a switch fluorescence ratio of 0.979 ± 0.0025.
TCAAATTTTA showed a switch fluorescence ratio of 1.02 ± 0.031.
TCAACGAATG gave a switch fluorescence ratio of 0.994 ± 0.08.
With TCAACGGGAA the switch fluorescence ratio was 1.01 ± 0.014.
TCAACGGTAT showed a switch fluorescence ratio of 1.06 ± 0.029.
In the case of TCAACTATAG, the switch fluorescence ratio is reported as 0.999 ± 0.01.
TCAAGAAATC gave a switch fluorescence ratio of 0.983 ± 0.091.
In the case of TCAAGAATGG, the switch fluorescence ratio is reported as 1 ± 0.059.
TCAAGACCTT showed a switch fluorescence ratio of 1.19 ± 0.014.
For TCAAGATAGG, the switch fluorescence ratio was 1.014 ± 0.0028.
In the case of TCAAGCCATC, the switch fluorescence ratio is reported as 1.063 ± 0.0037.
TCAAGCGAAC showed a switch fluorescence ratio of 1.48 ± 0.061.
TCAAGGATGT gave a switch fluorescence ratio of 1 ± 0.032.
With TCAAGGGAAC the switch fluorescence ratio was 0.9826 ± 0.004.
TCAAGGGATC was tested, and the switch fluorescence ratio was 0.991 ± 0.073.
TCAAGGGCAG was tested, and the switch fluorescence ratio was 1.0257 ± 0.00011.
With TCAAGGGCGG the switch fluorescence ratio was 0.988 ± 0.044.
For TCAAGGGGGT, the switch fluorescence ratio was 1.04 ± 0.097.
TCAAGGGGTG showed a switch fluorescence ratio of 1.034 ± 0.0082.
For TCAAGGTGTT, the switch fluorescence ratio was 1.15 ± 0.062.
Sequence TCAATAGATG has a switch fluorescence ratio of 0.998 ± 0.032.
With TCAATCATTT the switch fluorescence ratio was 0.997 ± 0.053.
For TCAATGAAGC, the switch fluorescence ratio was 0.988 ± 0.012.
For TCAATGAGGG, the switch fluorescence ratio was 1.01 ± 0.03.
TCAATGCGAT gave a switch fluorescence ratio of 1.33 ± 0.19.
For TCAATGGGGG, the switch fluorescence ratio was 0.985 ± 0.062.
With TCAATTATTT the switch fluorescence ratio was 1 ± 0.023.
For TCAATTGAGA, the switch fluorescence ratio was 1.02 ± 0.01.
Work on TCAATTTAGA yielded a switch fluorescence ratio of 1.03 ± 0.038.
TCACAATGCT gave a switch fluorescence ratio of 1.55 ± 0.016.
TCACAATTTA showed a switch fluorescence ratio of 0.9774 ± 0.0044.
In the case of TCACACAGGC, the switch fluorescence ratio is reported as 1.08 ± 0.16.
With TCACACGGAG the switch fluorescence ratio was 1.043 ± 0.0056.
TCACACGGGG was tested, and the switch fluorescence ratio was 1.03 ± 0.061.
For TCACAGTTGC, the switch fluorescence ratio was 0.99 ± 0.12.
Sequence TCACATTAAC has a switch fluorescence ratio of 1.04 ± 0.066.
TCACATTTTC was tested, and the switch fluorescence ratio was 1.09 ± 0.14.
With TCACCGCACG the switch fluorescence ratio was 2.2 ± 0.36.
With TCACGCTGTG the switch fluorescence ratio was 1.01 ± 0.036.
TCACGGGGGA was tested, and the switch fluorescence ratio was 1.03 ± 0.039.
Sequence TCACGGGTGC has a switch fluorescence ratio of 1.91 ± 0.19.
TCACGGTTGC was tested, and the switch fluorescence ratio was 1.04 ± 0.016.
TCACTAGAGT gave a switch fluorescence ratio of 0.9722 ± 0.0053.
With TCACTATATT the switch fluorescence ratio was 1.08 ± 0.045.
In the case of TCACTCATAT, the switch fluorescence ratio is reported as 1.02 ± 0.013.
Work on TCACTTTGTG yielded a switch fluorescence ratio of 1.01 ± 0.043.
Work on TCAGACTACT yielded a switch fluorescence ratio of 1.02 ± 0.021.
In the case of TCAGAGCATC, the switch fluorescence ratio is reported as 1.96 ± 1.1.
Work on TCAGAGGAAT yielded a switch fluorescence ratio of 1.01 ± 0.0089.
TCAGAGGCGG gave a switch fluorescence ratio of 1 ± 0.011.
TCAGATTAGC gave a switch fluorescence ratio of 0.998 ± 0.018.
TCAGCAAAGT was tested, and the switch fluorescence ratio was 1.08 ± 0.019.
Sequence TCAGCAAATT has a switch fluorescence ratio of 1.09 ± 0.041.
For TCAGCAATCG, the switch fluorescence ratio was 2.57 ± 0.026.
TCAGCATGCG gave a switch fluorescence ratio of 0.933 ± 0.025.
TCAGCCCCAT gave a switch fluorescence ratio of 1.033 ± 0.0072.
In the case of TCAGCGTTTC, the switch fluorescence ratio is reported as 1.05 ± 0.027.
TCAGGACGGA was tested, and the switch fluorescence ratio was 1.018 ± 0.0015.
TCAGGAGTCT gave a switch fluorescence ratio of 0.977 ± 0.062.
In the case of TCAGGATGGC, the switch fluorescence ratio is reported as 1.13 ± 0.092.
Sequence TCAGGATTTC has a switch fluorescence ratio of 1 ± 0.036.
In the case of TCAGGCATTG, the switch fluorescence ratio is reported as 0.979 ± 0.018.
For TCAGGCGTGA, the switch fluorescence ratio was 0.987 ± 0.035.
TCAGGGACAA showed a switch fluorescence ratio of 1.01 ± 0.013.
In the case of TCAGGGACGG, the switch fluorescence ratio is reported as 0.982 ± 0.025.
Work on TCAGGGATTG yielded a switch fluorescence ratio of 0.977 ± 0.017.
TCAGGGCGAA was tested, and the switch fluorescence ratio was 0.995 ± 0.016.
For TCAGGGCGCA, the switch fluorescence ratio was 1.03 ± 0.079.
In the case of TCAGGGCTAG, the switch fluorescence ratio is reported as 0.9837 ± 0.0093.
TCAGGGGACG showed a switch fluorescence ratio of 1 ± 0.025.
TCAGGGGATG was tested, and the switch fluorescence ratio was 0.99 ± 0.026.
With TCAGGGGCGC the switch fluorescence ratio was 0.971 ± 0.031.
In the case of TCAGGGGGTG, the switch fluorescence ratio is reported as 1.05 ± 0.11.
With TCAGGGTCTT the switch fluorescence ratio was 1.01 ± 0.011.
Work on TCAGGGTGGG yielded a switch fluorescence ratio of 1 ± 0.029.
In the case of TCAGGTGTTT, the switch fluorescence ratio is reported as 1.56 ± 0.51.
With TCAGGTTCGT the switch fluorescence ratio was 0.987 ± 0.01.
TCAGTAAATG was tested, and the switch fluorescence ratio was 0.969 ± 0.038.
TCAGTAGGGG gave a switch fluorescence ratio of 0.978 ± 0.068.
Work on TCAGTCGTGG yielded a switch fluorescence ratio of 0.9928 ± 0.0033.
Sequence TCAGTCTTTC has a switch fluorescence ratio of 1.017 ± 0.0009.
Work on TCAGTGGGGG yielded a switch fluorescence ratio of 0.97 ± 0.019.
For TCAGTGTGCC, the switch fluorescence ratio was 0.995 ± 0.03.
With TCAGTTCTTC the switch fluorescence ratio was 0.989 ± 0.011.
In the case of TCAGTTGGGG, the switch fluorescence ratio is reported as 0.991 ± 0.011.
For TCAGTTTGGA, the switch fluorescence ratio was 1.01 ± 0.018.
For TCAGTTTTCC, the switch fluorescence ratio was 1.02 ± 0.018.
In the case of TCATAAGGCG, the switch fluorescence ratio is reported as 0.986 ± 0.046.
TCATAAGTGC showed a switch fluorescence ratio of 0.977 ± 0.011.
TCATAATGAT was tested, and the switch fluorescence ratio was 1.005 ± 0.0032.
With TCATACATTT the switch fluorescence ratio was 0.9801 ± 0.0049.
For TCATACCCTG, the switch fluorescence ratio was 1.024 ± 0.0061.
For TCATACTCAA, the switch fluorescence ratio was 1.4 ± 0.018.
Sequence TCATAGGTAC has a switch fluorescence ratio of 1.04 ± 0.031.
In the case of TCATCAATAT, the switch fluorescence ratio is reported as 1.09 ± 0.067.
Work on TCATCACCGT yielded a switch fluorescence ratio of 1.01 ± 0.021.
Sequence TCATCATGTT has a switch fluorescence ratio of 1.01 ± 0.043.
For TCATCCCGGG, the switch fluorescence ratio was 1.052 ± 0.0077.
In the case of TCATCGGGG, the switch fluorescence ratio is reported as 0.947 ± 0.027.
TCATGAGGGG was tested, and the switch fluorescence ratio was 0.972 ± 0.036.
In the case of TCATGCATCT, the switch fluorescence ratio is reported as 1.01 ± 0.072.
For TCATGGGATG, the switch fluorescence ratio was 1.02 ± 0.018.
TCATGGGGAG showed a switch fluorescence ratio of 1.03 ± 0.033.
With TCATGGGGGG the switch fluorescence ratio was 1.007 ± 0.01.
TCATGGTCGT gave a switch fluorescence ratio of 0.982 ± 0.023.
TCATGGTGTC was tested, and the switch fluorescence ratio was 1.01 ± 0.018.
TCATGTAGAA showed a switch fluorescence ratio of 1.01 ± 0.02.
With TCATGTGACT the switch fluorescence ratio was 1.02 ± 0.053.
In the case of TCATTATGAA, the switch fluorescence ratio is reported as 0.987 ± 0.054.
With TCATTCAAGG the switch fluorescence ratio was 1.02 ± 0.013.
In the case of TCATTCGGTG, the switch fluorescence ratio is reported as 1.05 ± 0.041.
TCATTGGCAT was tested, and the switch fluorescence ratio was 1.03 ± 0.037.
With TCATTGGGGA the switch fluorescence ratio was 1.032 ± 0.0071.
Work on TCATTTTCTT yielded a switch fluorescence ratio of 0.9688 ± 0.0049.
TCATTTTGTT gave a switch fluorescence ratio of 1 ± 0.028.
TCCAAAATGG gave a switch fluorescence ratio of 1.09 ± 0.04.
Sequence TCCAAACTGT has a switch fluorescence ratio of 1.01 ± 0.051.
In the case of TCCAAGAGTT, the switch fluorescence ratio is reported as 0.989 ± 0.0055.
TCCAAGTGTT gave a switch fluorescence ratio of 0.998 ± 0.035.
For TCCAATATGG, the switch fluorescence ratio was 1.05 ± 0.094.
Sequence TCCAATGTAA has a switch fluorescence ratio of 1.06 ± 0.041.
TCCACAGTGG showed a switch fluorescence ratio of 1.35 ± 0.41.
With TCCACCCTT the switch fluorescence ratio was 1.03 ± 0.013.
TCCACGGATG showed a switch fluorescence ratio of 1.04 ± 0.047.
TCCAGAGATG showed a switch fluorescence ratio of 0.997 ± 0.028.
For TCCAGAGCGG, the switch fluorescence ratio was 1.34 ± 0.47.
With TCCAGGATAT the switch fluorescence ratio was 1.03 ± 0.046.
TCCAGGGGAA gave a switch fluorescence ratio of 1.03 ± 0.014.
For TCCAGGGGCG, the switch fluorescence ratio was 1.73 ± 0.99.
In the case of TCCAGGGGGA, the switch fluorescence ratio is reported as 1.1 ± 0.051.
TCCAGGGTAC showed a switch fluorescence ratio of 1.23 ± 0.18.
For TCCAGGGTTA, the switch fluorescence ratio was 1.031 ± 0.0058.
TCCAGTTGCT gave a switch fluorescence ratio of 1.02 ± 0.033.
TCCAGTTGTA gave a switch fluorescence ratio of 0.99 ± 0.019.
Sequence TCCATCGGGG has a switch fluorescence ratio of 1.01 ± 0.013.
In the case of TCCATGGGAC, the switch fluorescence ratio is reported as 1.03 ± 0.041.
With TCCATGTGCC the switch fluorescence ratio was 1.14 ± 0.14.
For TCCCATGTTT, the switch fluorescence ratio was 0.963 ± 0.032.
Work on TCCCGAGGGG yielded a switch fluorescence ratio of 1.083 ± 0.01.
TCCCGGGACA was tested, and the switch fluorescence ratio was 1.79 ± 1.1.
In the case of TCCCGGTTTT, the switch fluorescence ratio is reported as 1.1 ± 0.11.
TCCCTGGACT showed a switch fluorescence ratio of 1.023 ± 0.0099.
In the case of TCCGAATTGG, the switch fluorescence ratio is reported as 1.05 ± 0.022.
TCCGAGGGAT was tested, and the switch fluorescence ratio was 2.25 ± 1.3.
For TCCGATGGGT, the switch fluorescence ratio was 1.145 ± 0.0095.
In the case of TCCGCACCGT, the switch fluorescence ratio is reported as 1.76 ± 0.23.
